{"source": "paper PMC2691550", "about": "(Biochemistry, 2006)", "molecular_target": "the molecule itself", "assay": "crystal structure", "data": [{"protein": "Tyrosine phenol-lyase holoenzyme (Citrobacter freundii), in complex with pyridoxal-5′-phosphate and K+ at pH 8.0 (enzyme, UniProt P31013 1-456, looked up, Lys257 Nζ covalently linked to C4′ of pyridoxal-5′-phosphate (internal aldimine)) MNYPAEPFRIKSVETVSMIPRDERLKKMQEAGYNTFLLNSKDIYIDLLTDSGTNAMSDKQWAGMMMGDEAYAGSENFYHLERTVQELFGFKHIVPTHQGRGAENLLSQLAIKPGQYVAGNMYFTTTRYHQEKNGAVFVDIVRDEAHDAGLNIAFKGDIDLKKLQKLIDEKGAENIAYICLAVTVNLAGGQPVSMANMRAVRELTEAHGIKVFYDATRCVENAYFIKEQEQGFENKSIAEIVHEMFSYADGCTMSGKKDCLVNIGGFLCMNDDEMFSSAKELVVVYEGMPSYGGLAGRDMEAMAIGLREAMQYEYIEHRVKQVRYLGDKLKAAGVPIVEPVGGHAVFLDARRFCEHLTQDEFPAQSLAASIYVETGVRSMERGIISAGRNNVTGEHHRPKLETVRLTIPRRVYTYAHMDVVADGIIKLYQHKEDIRGLKFIYEPKQLRFFTARFDYI", "values": [{"measurement": "stoichiometry N", "value": 4}]}]}
